Results: article PMC6713926, “Structural Basis for Properdin Oligomerization and Convertase Stimulation in the Human Complement System” (Frontiers in Immunology, 2019)

Target: T1, Biotinylated C3b (human, UniProt P01024 23-667; P01024 749-1663, biotin (Maleimide-PEG2-Biotin))
T1 construct: complement C3, human, beta chain; complement C3, human, alpha' chain of C3b; also called biotin-C3b; immobilized C3b; source: made from plasma C3 by trypsin cleavage in the presence of Maleimide-PEG2-Biotin, purified by cation exchange
Assay: BLI; biotinylated C3b on streptavidin sensors; FPht variants at 100 to 1.56 μg/mL, 60 s steps; 30°C; 20 mM MES pH 6.0, 100 mM NaCl, 0.05% Tween, 1 mg/mL BSA; steady state 1:1 fit (for WT also kinetic analysis)
Settings: both partners purified

T1 sequence (P01024 23-667, chain 1 of 2): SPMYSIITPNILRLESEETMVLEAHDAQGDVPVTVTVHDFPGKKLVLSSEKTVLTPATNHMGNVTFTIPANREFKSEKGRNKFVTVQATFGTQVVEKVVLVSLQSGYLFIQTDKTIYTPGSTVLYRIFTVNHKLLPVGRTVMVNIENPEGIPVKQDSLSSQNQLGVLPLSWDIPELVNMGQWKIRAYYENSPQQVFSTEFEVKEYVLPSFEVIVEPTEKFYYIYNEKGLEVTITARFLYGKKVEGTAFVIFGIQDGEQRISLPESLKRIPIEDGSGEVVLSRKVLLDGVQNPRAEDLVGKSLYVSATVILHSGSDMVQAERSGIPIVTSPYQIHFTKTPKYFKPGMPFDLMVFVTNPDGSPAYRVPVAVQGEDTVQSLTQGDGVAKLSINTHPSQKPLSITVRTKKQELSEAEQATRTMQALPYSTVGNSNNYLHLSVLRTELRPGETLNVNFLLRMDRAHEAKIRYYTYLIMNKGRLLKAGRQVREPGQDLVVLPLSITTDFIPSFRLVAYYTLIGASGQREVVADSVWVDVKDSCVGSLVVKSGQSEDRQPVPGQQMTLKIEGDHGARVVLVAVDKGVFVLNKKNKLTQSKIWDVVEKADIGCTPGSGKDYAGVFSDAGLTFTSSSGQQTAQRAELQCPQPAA
T1 sequence (P01024 749-1663, chain 2 of 2): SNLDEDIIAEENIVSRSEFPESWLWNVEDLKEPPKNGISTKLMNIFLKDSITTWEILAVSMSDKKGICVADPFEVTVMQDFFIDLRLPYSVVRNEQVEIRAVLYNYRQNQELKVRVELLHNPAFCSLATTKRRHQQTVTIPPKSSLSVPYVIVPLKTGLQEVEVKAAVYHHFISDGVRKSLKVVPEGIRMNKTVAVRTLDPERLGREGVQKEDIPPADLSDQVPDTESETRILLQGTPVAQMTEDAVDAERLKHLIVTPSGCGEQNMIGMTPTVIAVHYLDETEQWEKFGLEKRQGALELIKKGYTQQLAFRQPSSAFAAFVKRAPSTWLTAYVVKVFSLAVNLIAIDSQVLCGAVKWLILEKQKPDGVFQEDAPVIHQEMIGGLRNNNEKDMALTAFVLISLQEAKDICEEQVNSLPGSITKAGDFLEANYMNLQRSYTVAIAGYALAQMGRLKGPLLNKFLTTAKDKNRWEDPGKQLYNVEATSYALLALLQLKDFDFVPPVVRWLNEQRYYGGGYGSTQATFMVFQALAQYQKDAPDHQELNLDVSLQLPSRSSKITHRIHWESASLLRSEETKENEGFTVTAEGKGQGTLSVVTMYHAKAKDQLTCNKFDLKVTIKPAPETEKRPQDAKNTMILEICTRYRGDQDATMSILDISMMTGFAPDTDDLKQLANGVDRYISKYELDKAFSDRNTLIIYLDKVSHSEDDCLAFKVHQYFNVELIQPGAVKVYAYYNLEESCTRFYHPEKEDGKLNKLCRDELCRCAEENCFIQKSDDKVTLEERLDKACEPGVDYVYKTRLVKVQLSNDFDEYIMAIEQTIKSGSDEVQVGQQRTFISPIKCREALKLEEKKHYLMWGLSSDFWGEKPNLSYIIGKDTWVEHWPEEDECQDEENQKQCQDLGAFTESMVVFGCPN

B1: FPht R353A (complex)
chain 1: DPVLCFTQYEESSGKCKGLLGGGVSVEDCCLNTAFAYQKRSGGLCQPCRSPRWSLWSTWAPCSVTCSEGSQLRYRRCVGWNGQCSGKVAPGTLEWQLQACEDQQCCPEMGGWSGWGPWEPCSVTCSKGTRTRRRACNHPAPKCGGHCPGQAQESEACDTQQVCPTHGAWATWGPWTPCSASCHGGPHEPKETRSRKCSAPEPSQKPPGKPCPGLAYEQRRCTGLPPCP
chain 2: VAGGWGPWGPVSPCPVTCGLGQTMEQRTCNHPVPQHGGPFCAGDATRTHICNTAVPCPVDGEWDSWGEWSPCIRRNMKSISCQEIPGQQSRGRTCRGAKFDGHRCAGQQQDIRHCYSIQHCPLKGSWSEWSTWGLCMPPCGPNPTRARQRLCTPLLPKYPPTVSMVEGQGEKNVTFWGRPLPRCEELQGQKLVVEEKRPCLHVPACKDPEEEEL
Kd: 1000 nM
